Assay results taken from the DeepSol protein solubility set.

Test: soluble on expression in E. coli; label from the status in PepcDB or PDB records

| Sequence | soluble on expression in E. coli |
| --- | --- |
| MGSDKIHHHHHHMRKLIFIAFMVMSVCGYAQKYEVGTTTAVWKAPAAADFLHAKAIGVKYVEVAFNQCYRGVPVDEVIPRIKEMKAKIDSADIEVWSIHLPFSRTLDISVLDDRLRKENVDFMAEMIELCAMFQPTCLVLHPSSEPIADSIRAQRIANASESIAYLKKYADRIGAQLCIENLPRTCLGNTPEELMRIVGDIPDVKVCFDTNHYTKGTTEHFVAIVGSRIGTIHASDFDLVNECHWLPTQGNIKWGKLMQDLEKTGYKGVFMYEATKDHENNNVRPALERIAETFDKITDDYKTLK | not soluble |
| MSRIGLQQLNNSARNSPFGSEKATGTKQIPEPLKLTAQLKKYQPITPSPLASATTITPVLSPFDVFCDDDQEAKNVETQMFEYGTVSTQTIINVPHVQPKITEADLTSEKPTVNYLRVMADRLQMDLDDEMDRNQRLVAELGDLDEKMRKIDDDTEILLEVLADIDEEQQTDEEIGTAQL | not soluble |
| MSLYEITQYRLPHLSESAEALCHADKRPVFVGDSAAKPGLQLQQDETRWHSARQHRWSTPLAHQLQRSVQRLLLADNCEGKLTVWVDDFYGSNDSRAVVAGHWEYKSQDSQTVLKGTFTESTPLKSDGYPALVNALDEAWLNVMDTISLGVGQKLAREGHHHHHH | soluble |
| MGSDKIHHHHHHMQFPSIEDLRARNTMKWTRYGQGVLPLWVAESDFSTCPAVLQAITDAVQREAFGYQPDGSLLSQATAEFYADRYGYQARPEWIFPIPDVVRGLYIAIDHFTPAQSKVIVPTPAYPPFFHLLSATQREGIFIDATGGINLHDVEKGFQAGARSILLCNPYNPLGMVFAPEWLNELCDLAHRYDARVLVDEIHAPLVFDGQHTVAAGVSDTAASVCITITAPSKAWNIAGLKCAQIIFSNPSDAEHWQQLSPVIKDGASTLGLIAAEAAYRYGTDFLNQEVAYLKNNHDFLLHEIPKRIPGAKITPMQATYLMWIDFRDTTIEGSPSEFFIEKAKVAMNDGAWFGEDGTGFCRLNFATSREVLEEAIDRMAKAVSHHT | not soluble |
| MSLDTPDYKRVVLKLSGEALAGNDGFGINPSVVNLISAQIKEVVELGVEVAIVVGGGNIWRGKLGSEMGMDRAAADQMGMLATIMNSLSLQDSLENIGVATRVQTSIDMRQIAEPYIRRKAIRHLEKGRVVIFAGGTGNPYFSTDTAAALRAAEIEADVILMAKNNVDGVYNADPKLDENAKKYEELSYLDVIKEGLEVMDTTASSLSMDNDIPLIVFSFTEQGNNIKRVILGEKIGTTVRGKKEGHHHHHH | soluble |
| MPGNSPHYGRWPQHDFTSLKKLRPQSVTSRIQPGSDVIVCAEMDEQWGYVGAKSRQRWLFYAYDSLRKTVVAHVFGERTMATLGRLMSLLSPFDVVIWMTDGWPLYESRLKGKLHVISKRYTQRIERHNLNLRQHLARLGRKSLSFSKSVELHDKVIGHYLNIKHYQLEHHHHHH | soluble |
| MSIMKTADRPHAMNRRQDAIFLEVFWARVRSIADEAAKLIVRTSFSTLSTEANDFTVVVTDSAGRCLTENSGSIPAFIGTLPATVQAVIAKYPHHTLRPGDVFITNDPWIGTGHLNDVCLVKPVFHLGKVVAFAATAGHVPDIGGRFRSVNAHELFEEGLQIPVIRLLDQGAPNEAILDMIRTNVRTPDQTAGDIWSQASAVELVARRLGEVLVEYALPGVDDIAEALFERGDRALRKAISALPDGQYRYAMQTDGFEQRLDLAVTVRIEGDAITCDFTGTSPQQPRAINCPLGYTTAMAVYAIKCLLVPDIPNSDGMLRAIRVEAPEHSLLNPARPAAVGGRASTGHYLPVLIFGAMHAVLPERVMAGAGSPLWSANISGTGADGLPMATVLFFNGGMGATCGKDGAAVMSWPSNISPTPVEVAERDIPLFFRYKRLRVDSGGPGQWRGGLGEEVCMVSRHDRPLSVVFLAERTREPAPGLGGGQAGVPGAVWINGVAVDVRERHLLNPGDELVMRTPGGGGFGPPGQRDPALADHDYRLGYSAAPGTARQS | not soluble |
| MHHHHHHMVGFGELKEEWRGEVVHLSWSPRAFLLKNFLSDEECDYIVEKARPKMVKSSVVDNESGKSVDSEIRTSTGTWFAKGEDSVISKIEKRVAQVTMIPLENHEGLQVLHYHDGQKYEPHYDYFHDPVNAGPEHGGQRVVTMLMYLTTVEEGGETVLPNAEQKVTGDGWSECAKRGLAVKPIKGDALMFYSLKPDGSNDPASLHGSCPTLKGDKWSATKWIHVAPIGGRH | soluble |
